Molecular target: human HSF2-YFP (human) (UniProt Q03933)
Assay: fluorescent three-hybrid assay

human HSF2-YFP (human), sequence (Q03933 whole entry): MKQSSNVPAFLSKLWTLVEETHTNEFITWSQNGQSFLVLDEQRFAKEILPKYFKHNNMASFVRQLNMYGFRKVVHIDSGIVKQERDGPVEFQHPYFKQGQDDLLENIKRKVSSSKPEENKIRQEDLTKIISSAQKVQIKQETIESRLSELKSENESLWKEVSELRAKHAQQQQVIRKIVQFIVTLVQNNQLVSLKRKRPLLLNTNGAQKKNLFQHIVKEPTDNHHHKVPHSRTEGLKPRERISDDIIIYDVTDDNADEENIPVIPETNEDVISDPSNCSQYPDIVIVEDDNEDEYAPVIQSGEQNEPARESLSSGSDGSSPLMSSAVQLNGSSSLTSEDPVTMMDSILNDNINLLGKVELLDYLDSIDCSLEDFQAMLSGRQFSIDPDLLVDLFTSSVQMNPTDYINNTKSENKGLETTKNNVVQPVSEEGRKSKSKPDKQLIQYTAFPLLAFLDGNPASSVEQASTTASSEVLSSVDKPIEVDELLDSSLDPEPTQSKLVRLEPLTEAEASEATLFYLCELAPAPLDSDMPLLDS
CBP-HA, Q92793 1-2442 (natural protein), sequence (Q92793 whole entry): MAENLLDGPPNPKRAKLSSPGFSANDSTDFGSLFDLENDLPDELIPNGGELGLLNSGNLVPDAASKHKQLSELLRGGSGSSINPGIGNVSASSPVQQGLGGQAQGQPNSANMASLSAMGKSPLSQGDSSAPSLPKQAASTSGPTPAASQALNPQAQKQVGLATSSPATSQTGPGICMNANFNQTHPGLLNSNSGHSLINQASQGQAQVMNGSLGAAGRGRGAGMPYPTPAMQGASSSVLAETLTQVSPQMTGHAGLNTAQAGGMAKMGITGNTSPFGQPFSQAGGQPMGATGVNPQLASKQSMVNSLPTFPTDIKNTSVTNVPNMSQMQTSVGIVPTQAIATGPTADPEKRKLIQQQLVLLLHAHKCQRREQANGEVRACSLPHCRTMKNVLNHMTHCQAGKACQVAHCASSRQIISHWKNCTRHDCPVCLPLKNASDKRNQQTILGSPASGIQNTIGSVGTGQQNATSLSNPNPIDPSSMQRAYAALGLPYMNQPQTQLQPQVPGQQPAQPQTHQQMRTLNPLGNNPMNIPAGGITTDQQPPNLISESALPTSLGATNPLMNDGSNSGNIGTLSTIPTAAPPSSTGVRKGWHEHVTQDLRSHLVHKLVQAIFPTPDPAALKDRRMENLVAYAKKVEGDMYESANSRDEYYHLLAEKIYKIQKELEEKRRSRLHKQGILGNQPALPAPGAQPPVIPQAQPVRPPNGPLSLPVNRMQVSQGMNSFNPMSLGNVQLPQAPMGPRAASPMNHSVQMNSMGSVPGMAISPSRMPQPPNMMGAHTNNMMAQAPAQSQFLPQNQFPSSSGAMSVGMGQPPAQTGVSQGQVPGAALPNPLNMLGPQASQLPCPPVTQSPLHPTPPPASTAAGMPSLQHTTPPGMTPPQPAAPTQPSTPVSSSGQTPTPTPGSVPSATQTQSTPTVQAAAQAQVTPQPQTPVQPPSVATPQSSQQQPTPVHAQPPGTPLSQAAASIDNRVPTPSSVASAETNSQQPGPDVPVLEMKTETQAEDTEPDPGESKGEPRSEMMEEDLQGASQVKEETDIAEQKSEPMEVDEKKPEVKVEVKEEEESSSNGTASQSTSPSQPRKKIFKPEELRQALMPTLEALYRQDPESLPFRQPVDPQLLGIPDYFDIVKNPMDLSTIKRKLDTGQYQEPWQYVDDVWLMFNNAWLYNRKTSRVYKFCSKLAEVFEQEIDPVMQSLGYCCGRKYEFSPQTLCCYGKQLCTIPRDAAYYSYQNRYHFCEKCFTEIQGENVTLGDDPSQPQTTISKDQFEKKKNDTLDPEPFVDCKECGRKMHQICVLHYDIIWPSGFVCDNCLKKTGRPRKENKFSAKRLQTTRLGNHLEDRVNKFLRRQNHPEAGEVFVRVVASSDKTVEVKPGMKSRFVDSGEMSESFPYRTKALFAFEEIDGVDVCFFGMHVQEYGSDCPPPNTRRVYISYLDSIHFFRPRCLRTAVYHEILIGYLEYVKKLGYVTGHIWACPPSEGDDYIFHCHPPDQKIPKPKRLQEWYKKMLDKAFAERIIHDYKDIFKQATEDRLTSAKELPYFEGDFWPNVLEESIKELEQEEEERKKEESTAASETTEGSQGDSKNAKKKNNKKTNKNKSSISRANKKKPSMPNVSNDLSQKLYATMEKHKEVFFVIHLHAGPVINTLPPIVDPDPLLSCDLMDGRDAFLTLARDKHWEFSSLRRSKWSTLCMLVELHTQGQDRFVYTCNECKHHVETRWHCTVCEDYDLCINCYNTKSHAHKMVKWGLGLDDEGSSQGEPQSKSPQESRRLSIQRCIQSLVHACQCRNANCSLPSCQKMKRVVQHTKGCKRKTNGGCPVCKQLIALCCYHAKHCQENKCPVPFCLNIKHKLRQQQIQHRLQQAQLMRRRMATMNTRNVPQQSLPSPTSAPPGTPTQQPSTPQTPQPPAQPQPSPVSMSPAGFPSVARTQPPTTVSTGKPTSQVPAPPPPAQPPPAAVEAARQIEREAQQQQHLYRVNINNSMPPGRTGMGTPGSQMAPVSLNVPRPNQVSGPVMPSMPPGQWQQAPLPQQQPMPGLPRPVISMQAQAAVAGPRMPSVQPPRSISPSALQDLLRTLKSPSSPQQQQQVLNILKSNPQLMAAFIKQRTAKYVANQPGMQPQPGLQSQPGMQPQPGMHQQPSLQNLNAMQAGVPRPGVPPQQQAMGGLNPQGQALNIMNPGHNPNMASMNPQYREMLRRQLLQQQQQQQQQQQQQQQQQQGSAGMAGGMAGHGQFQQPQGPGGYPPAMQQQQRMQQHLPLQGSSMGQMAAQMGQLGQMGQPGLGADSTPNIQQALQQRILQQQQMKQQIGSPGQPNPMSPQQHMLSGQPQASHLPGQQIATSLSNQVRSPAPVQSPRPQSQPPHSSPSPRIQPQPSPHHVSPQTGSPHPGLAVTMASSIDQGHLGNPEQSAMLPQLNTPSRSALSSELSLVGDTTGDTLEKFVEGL

Row | percent of cells showing co-recruitment to the HSF2-YFP focus | percent of cells showing co-recruitment with HSF2-YFP | Substance
1 | 68.4% |  | CBP-HA, Q92793 1-2442 (natural protein)
2 | 48.6% |  | EP300-HA, Q09472 1-2414
3 |  | 43.9% | endogenous CBP of BHK cells (natural protein)
